Literature values in patent US5380646A, “Thrombus detection using radiolabelled disintegrins” (Temple University of the Commonwealth System of Higher …, priority 1992, dated 1995).

Test system: thrombi
Details: literature, in words

B1: tissue plasminogen activator: plasminogen activator (protein, UniProt P00750 36-562, looked up)
Tissue-type plasminogen …: SYQVICRDEKTQMIYQQHQSWLRPVLRSNRVEYCWCNSGRAQCHSVPVKSCSEPRCFNGGTCQQALYFSDFVCQCPEGFAGKCCEIDTRATCYEDQGISYRGTWSTAESGAECTNWNSSALAQKPYSGRRPDAIRLGLGNHNYCRNPDRDSKPWCYVFKAGKYSSEFCSTPACSEGNSDCYFGNGSAYRGTHSLTESGASCLPWNSMILIGKVYTAQNPSAQALGLGKHNYCRNPDGDAKPWCHVLKNRRLTWEYCDVPSCSTCGLRQYSQPQFRIKGGLFADIASHPWQAAIFAKHRRSPGERFLCGGILISSCWILSAAHCFQERFPPHHLTVILGRTYRVVPGEEEQKFEVEKYIVHKEFDDDTYDNDIALLQLKSDSSRCAQESSVVRTVCLPPADLQLPDWTECELSGYGKHEALSPFYSERLKEAHVRLYPSSRCTSQHLLNRTVTDNMLCAGDTRSGGPQANLHDACQGDSGGPLVCLNDGRMTLVGIISWGLGCGQKDVPGVYTKVTNYLDWIRDNMRP
  ability to image or detect thrombi: only with marginal success
